T1: Human Nidogen-2 (Homo sapiens, UniProt Q14112)
T1 construct: purchased Novus NBP2-10365
T1 sequence (Q14112 31-1375): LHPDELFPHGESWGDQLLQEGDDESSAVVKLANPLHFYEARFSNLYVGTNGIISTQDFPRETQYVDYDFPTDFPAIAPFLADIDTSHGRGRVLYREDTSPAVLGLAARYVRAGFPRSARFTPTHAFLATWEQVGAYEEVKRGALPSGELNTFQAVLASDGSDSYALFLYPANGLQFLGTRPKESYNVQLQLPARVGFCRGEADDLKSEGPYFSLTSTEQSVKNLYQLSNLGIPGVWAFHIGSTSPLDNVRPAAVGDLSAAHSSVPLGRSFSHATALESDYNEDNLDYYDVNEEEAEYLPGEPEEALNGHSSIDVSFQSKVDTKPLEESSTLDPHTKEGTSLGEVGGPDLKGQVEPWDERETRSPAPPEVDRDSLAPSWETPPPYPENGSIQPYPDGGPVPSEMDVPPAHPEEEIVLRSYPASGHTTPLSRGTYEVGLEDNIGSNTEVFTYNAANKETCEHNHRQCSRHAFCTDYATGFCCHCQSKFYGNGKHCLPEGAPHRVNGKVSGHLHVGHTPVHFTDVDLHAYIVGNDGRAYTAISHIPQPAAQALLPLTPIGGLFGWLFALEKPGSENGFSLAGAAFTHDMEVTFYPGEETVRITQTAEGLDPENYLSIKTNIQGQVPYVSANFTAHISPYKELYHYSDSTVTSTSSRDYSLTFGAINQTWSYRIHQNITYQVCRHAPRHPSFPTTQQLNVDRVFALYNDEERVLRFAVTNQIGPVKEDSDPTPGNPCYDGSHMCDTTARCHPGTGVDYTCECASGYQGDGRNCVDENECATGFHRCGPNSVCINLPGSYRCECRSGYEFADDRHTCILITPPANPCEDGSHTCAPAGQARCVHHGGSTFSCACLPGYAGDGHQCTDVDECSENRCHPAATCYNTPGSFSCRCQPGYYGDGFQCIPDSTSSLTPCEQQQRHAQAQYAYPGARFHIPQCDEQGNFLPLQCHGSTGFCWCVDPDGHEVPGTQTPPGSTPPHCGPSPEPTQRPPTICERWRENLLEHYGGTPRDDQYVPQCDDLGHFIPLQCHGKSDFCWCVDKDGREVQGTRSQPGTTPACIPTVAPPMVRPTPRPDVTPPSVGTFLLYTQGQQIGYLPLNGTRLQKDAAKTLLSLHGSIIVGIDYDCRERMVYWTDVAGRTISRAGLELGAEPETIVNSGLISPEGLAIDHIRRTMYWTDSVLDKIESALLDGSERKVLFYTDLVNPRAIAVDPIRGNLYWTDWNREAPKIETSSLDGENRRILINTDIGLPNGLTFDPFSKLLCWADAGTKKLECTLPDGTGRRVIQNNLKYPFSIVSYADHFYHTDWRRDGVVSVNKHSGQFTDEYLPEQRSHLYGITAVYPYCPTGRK


The molecules below were run against T2, Human Myelin Basic Protein (Homo sapiens, UniProt P02686) (assay: phage display R3, NGS count). Settings: not given.
T2 sequence (P02686 135-304 limits assumed): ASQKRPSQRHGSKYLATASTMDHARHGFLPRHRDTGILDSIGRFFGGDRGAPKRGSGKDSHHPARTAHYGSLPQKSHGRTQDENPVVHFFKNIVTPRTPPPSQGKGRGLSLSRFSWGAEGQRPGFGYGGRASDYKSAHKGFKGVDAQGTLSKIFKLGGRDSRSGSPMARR

Count	Molecule
16	SVLRMLN
15	AITSRNA
13	ILLPSLN
16	LPMRILT
16	EHGYYKV
14	SKSDAWR

What follows are molecules tested against T1, Human Nidogen-2 (assay: Phage display library screening (Example 1, Power BI analysis), binding to Human Nidogen-2). Settings: R3 Nidogen-2, NextGen sequencing count of phage sequences distinct for this target.
Text: Phage display library screens were used to identify peptides that bind to target proteins that are expressed in human nerves and could therefore be useful for systemic in-vivo labeling of nerves during fluorescence assisted surgery. Specifically, m13 phage libraries expressing 7 or 12 random amino acid peptides, or a cyclic peptide CX7C, on the N-terminus of the minor coat protein pIII (New England Biolabs) were processed through multiple rounds of selection for binding to target proteins expressed in peripheral nerve (Table 1).
The library was processed through up to 4 binding and wash cycles. For selection, phage libraries were incubated for up to 24 hours at 4° C. in 96 well plates that had been coated with one of the target proteins. Plates were then washed with PBS and phage were eluted using 0.2M glycine pH 2.0. Phage supernatants where then neutralized with Tris pH 9.0 prior to plating on TG1 bacteria and LB agar plates. Colonies were counted to determine titer followed by DNA preparation of pools of phage and NextGen sequencing. After rounds of selection, phage were pooled and amplified for iterative selection. Phage that were bound at each round were sequenced. NextGen sequencing of pools after 2, 3 and 4 rounds of selection was used to isolate candidate sequences that were analyzed further to identify those that specifically bound each unique target protein.
DNA sequences were trimmed of all vector amino acids and imported as a peptide dataset into Power BI. Power BI was used to identify phage display sequences for specific columns (corresponding to each target protein) in order to identify sequences that were distinct for each protein target. The Power BI code evaluated each individual sequence for each protein target against the sequences present in other protein targets in a test for uniqueness. Using the distinct flag, the Power BI code generated a filtered peptide dataset that excluded any peptide sequence that occur in more than one column which identified a specific protein target. This method therefore identified candidate peptide sequences showing selective binding to an individual target protein. Unique sequences in each column were sorted by individual counts such that the most selected sequences appeared at the top of the column.

Molecule	Count
ACEPRSLANC (R3 Nidogen-2-binding peptide)	11
ACGEGEADVC (R3 Nidogen-2-binding peptide)	26
ACPENKSKHC (R3 Nidogen-2-binding peptide)	13
ACTVHKWDNC (R3 Nidogen-2-binding peptide)	11
GYWRNAL (R3 Nidogen-2-binding peptide)	11
KAIHPMRG (R3 Nidogen-2-binding peptide)	11

The molecules below were run against Human Nidogen-2 (human) (UniProt Q14112) (assay: phage display R3, NGS count). Settings: not given.

Count	Molecule
11	GYWRNAL (peptide)
11	KAIHPMRG (peptide)

What follows are molecules tested against T2, Human Myelin Basic Protein (assay: phage display, NGS count). Settings: not given.

Count	Molecule
16	LPMRILT
17	EHGYYKV

— US20240207421A1, “NERVE TARGETING PEPTIDES AND METHODS OF USE” (ALUME BIOSCIENCES, INC., priority 2020, published 2024)
